Our source for the co-IP mass spectrometry count values is patent publication US20240261333A1, “NOVEL TARGETS FOR ENHANCING ANTI-TUMOR IMMUNITY” (THE BROAD INSTITUTE, INC., priority 2021, published 2024).

For one test, the target named is HIST1H1E (UniProt P10412). The test can be described thus: co-IP, anti-FLAG, C-FLAG B3GNT2 cell lysate, mass spectrometry.
The next test has as its target LIMA1 (UniProt Q9UHB6). The description is as above.
A further test concerns the target TXN (UniProt P10599). The description is as above.
A further test concerns the target SRSF1 (UniProt Q07955). Described as above.
The next test concerns the target MTCH2 (UniProt Q9Y6C9). The test is described as above.
Another test has as its target HSPB1 (UniProt P04792). The description is as above.
The target of a further test is RPL5 (UniProt P46777). The description is as above.
The next test has as its target NCCRP1 (UniProt Q6ZVX7). The test is described as above.
The target in a further test is PSMA7 (UniProt O14818). Described as above.
Sequence of PSMA7 (O14818 whole entry): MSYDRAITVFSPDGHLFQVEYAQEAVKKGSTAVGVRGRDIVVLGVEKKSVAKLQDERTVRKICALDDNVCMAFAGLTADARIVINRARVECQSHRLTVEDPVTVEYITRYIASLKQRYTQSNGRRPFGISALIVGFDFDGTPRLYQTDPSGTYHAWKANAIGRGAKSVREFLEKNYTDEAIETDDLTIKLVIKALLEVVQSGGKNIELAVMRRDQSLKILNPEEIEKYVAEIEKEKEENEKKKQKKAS
A further test deals with TAGLN (UniProt Q01995). The description is as above.
Sequence of TAGLN (Q01995 2-201 limits assumed): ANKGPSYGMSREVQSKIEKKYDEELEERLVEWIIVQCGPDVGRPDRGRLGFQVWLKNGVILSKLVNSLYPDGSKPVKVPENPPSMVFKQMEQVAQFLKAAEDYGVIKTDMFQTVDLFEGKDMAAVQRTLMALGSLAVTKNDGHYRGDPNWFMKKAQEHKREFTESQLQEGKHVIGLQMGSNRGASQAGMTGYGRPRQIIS
In a further test the target is SRSF3 (UniProt P84103). The test is described as above.
Sequence of SRSF3 (P84103 whole entry): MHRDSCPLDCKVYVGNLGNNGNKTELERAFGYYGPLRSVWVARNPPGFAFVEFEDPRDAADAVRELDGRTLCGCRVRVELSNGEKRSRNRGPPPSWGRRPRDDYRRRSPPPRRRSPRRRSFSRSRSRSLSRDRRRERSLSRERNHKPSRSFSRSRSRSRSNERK
In a further test the target is TNKS1BP1 (UniProt Q9C0C2). The test is described as above.
Sequence of TNKS1BP1 (Q9C0C2 whole entry): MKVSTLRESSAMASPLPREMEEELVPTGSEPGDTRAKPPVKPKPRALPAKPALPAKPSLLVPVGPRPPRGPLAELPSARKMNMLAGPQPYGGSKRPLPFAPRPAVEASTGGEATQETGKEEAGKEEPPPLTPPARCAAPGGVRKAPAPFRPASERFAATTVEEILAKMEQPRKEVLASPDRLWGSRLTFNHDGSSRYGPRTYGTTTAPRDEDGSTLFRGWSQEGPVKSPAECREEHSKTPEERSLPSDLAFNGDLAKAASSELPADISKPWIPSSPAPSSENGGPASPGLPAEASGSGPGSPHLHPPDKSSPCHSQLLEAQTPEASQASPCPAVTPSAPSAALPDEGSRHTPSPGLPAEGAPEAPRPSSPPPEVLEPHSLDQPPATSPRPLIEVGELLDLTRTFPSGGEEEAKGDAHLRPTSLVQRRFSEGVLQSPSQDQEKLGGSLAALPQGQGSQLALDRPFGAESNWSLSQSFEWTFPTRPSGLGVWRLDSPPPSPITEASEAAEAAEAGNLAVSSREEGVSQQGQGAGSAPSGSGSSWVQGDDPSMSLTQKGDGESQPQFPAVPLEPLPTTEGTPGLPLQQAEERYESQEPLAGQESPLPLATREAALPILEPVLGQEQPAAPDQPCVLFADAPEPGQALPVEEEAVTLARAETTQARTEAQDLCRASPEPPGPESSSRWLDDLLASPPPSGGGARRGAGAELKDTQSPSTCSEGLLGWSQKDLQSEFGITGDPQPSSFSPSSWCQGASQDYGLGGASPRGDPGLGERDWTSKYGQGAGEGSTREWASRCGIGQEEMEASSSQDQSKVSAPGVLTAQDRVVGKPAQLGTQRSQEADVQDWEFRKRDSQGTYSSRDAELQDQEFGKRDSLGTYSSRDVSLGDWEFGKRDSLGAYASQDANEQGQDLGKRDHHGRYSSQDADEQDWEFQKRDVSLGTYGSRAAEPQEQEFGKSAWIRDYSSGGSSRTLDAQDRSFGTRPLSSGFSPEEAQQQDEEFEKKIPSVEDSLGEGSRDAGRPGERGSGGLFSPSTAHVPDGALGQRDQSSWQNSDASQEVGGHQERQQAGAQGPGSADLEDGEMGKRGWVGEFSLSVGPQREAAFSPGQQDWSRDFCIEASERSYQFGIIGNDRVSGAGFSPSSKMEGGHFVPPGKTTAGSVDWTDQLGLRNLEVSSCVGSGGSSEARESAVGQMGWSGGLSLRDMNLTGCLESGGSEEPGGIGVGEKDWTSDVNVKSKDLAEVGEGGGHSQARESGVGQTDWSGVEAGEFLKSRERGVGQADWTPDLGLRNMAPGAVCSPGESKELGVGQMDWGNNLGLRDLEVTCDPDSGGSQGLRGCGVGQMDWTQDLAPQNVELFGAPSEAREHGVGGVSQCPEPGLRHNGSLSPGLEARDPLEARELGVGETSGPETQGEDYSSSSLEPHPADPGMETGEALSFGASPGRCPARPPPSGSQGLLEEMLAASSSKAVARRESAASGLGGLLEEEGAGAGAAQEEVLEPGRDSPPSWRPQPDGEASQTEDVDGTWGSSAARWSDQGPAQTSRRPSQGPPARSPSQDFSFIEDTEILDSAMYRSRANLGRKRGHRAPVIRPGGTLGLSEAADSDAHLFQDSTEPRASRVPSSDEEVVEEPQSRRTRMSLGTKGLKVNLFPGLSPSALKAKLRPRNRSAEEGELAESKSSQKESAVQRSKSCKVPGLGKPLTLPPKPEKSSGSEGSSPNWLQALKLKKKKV
The target of a further test is RPL19 (UniProt P84098). The description is as above.
The target in the next test is DNAJA2 (UniProt O60884). The description is as above.
Sequence of DNAJA2 (O60884 1-409 limits assumed): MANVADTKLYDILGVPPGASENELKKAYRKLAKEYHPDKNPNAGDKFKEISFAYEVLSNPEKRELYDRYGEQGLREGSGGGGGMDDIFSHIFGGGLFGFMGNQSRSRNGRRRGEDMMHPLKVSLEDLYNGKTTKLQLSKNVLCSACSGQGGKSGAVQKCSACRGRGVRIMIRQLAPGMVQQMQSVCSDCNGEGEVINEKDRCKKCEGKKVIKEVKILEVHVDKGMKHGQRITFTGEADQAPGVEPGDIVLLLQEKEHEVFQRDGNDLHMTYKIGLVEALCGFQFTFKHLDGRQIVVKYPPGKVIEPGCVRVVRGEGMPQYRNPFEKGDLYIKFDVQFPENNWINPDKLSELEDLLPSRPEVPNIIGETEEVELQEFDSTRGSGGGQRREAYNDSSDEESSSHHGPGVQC
For another test, the target named is ITGB3 (UniProt P05106). The description is as above.
A further test deals with RPL37A (UniProt P61513). The test is described as above.
For a further test, the target named is RPS16 (UniProt P62249). The test is described as above.
A further test deals with MTDH (UniProt Q86UE4). Described as above.
For another test, the target named is EIF4G1 (UniProt Q04637). The test is described as above.
For another test, the target named is DDX20 (UniProt Q9UHI6). Described as above.
The target of a further test is HNRNPU (UniProt Q00839). Described as above.
The target of another test is RPS19 (UniProt P39019). The description is as above.
In the next test the target is RPL27A (UniProt P46776). Described as above.
The target in another test is RPS8 (UniProt P62241). Described as above.
In the next test the target is SSRP1 (UniProt Q08945). Described as above.
Sequence of SSRP1 (Q08945 2-709 limits assumed): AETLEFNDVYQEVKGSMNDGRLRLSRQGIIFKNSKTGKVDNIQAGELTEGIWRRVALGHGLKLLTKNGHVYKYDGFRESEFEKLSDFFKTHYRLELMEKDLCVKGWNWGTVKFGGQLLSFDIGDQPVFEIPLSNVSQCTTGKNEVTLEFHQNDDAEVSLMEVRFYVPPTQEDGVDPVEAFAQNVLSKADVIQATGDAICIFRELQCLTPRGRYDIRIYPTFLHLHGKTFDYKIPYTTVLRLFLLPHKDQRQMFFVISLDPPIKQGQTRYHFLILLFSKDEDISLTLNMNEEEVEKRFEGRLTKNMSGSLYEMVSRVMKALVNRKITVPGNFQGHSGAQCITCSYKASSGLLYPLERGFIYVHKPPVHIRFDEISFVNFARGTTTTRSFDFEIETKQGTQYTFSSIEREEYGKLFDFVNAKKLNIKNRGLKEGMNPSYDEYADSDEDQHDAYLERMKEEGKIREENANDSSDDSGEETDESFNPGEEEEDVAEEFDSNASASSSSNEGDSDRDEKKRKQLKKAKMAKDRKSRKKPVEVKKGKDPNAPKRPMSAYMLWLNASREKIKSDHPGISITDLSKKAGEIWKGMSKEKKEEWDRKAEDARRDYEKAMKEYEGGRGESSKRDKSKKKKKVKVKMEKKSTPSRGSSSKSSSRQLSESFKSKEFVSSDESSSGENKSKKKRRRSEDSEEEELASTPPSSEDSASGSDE
A further test concerns the target PBXIP1 (UniProt Q96AQ6). Described as above.
The target in the next test is RPL22 (UniProt P35268). Described as above.
The next test deals with RPL13A (human) (UniProt P40429). The test can be described thus: co-IP/MS, IgG control IP of C-FLAG B3GNT2 cell lysate.
In another test the target is RPLPO (human) (UniProt P05388). The test is described as above.
The target in another test is RPL30 (human) (UniProt P62888). Described as above.
Another test has as its target RCN2 (human) (UniProt Q14257). The description is as above.
In another test the target is RPS12 (human) (UniProt P25398). The description is as above.
A further test deals with DNAJA1 (human) (UniProt P31689). The test is described as above.
The next test addresses RPL14 (human) (UniProt P50914). Described as above.
In the next test the target is CAPZB (human) (UniProt P47756). The description is as above.
A further test deals with PRDX2 (human) (UniProt P32119). The test is described as above.
Sequence of PRDX2 (human) (P32119 2-198 limits assumed): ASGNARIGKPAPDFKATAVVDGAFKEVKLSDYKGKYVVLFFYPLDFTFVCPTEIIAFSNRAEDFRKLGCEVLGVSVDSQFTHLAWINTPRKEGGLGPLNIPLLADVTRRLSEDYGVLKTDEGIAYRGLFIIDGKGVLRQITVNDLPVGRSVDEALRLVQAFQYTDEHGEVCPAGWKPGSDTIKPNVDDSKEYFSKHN
For another test, the target named is RPS5 (human) (UniProt P46782). The test is described as above.
For the next test, the target named is HSD17B12 (human) (UniProt Q53GQ0). The test is described as above.
The target in another test is CASP14 (human) (UniProt P31944). The test is described as above.
Sequence of CASP14 (human) (P31944 whole entry): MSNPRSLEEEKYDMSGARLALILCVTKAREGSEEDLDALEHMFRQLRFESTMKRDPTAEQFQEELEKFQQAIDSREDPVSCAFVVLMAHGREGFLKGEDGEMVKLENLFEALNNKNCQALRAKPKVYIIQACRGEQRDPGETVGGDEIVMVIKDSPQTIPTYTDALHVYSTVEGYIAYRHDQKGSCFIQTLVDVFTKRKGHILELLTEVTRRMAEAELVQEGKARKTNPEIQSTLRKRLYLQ
A further test deals with LRP1 (human) (UniProt Q07954). The test is described as above.

Sequence of LIMA1 (Q9UHB6 other isoform, or with tags, fused parts or gaps limits assumed): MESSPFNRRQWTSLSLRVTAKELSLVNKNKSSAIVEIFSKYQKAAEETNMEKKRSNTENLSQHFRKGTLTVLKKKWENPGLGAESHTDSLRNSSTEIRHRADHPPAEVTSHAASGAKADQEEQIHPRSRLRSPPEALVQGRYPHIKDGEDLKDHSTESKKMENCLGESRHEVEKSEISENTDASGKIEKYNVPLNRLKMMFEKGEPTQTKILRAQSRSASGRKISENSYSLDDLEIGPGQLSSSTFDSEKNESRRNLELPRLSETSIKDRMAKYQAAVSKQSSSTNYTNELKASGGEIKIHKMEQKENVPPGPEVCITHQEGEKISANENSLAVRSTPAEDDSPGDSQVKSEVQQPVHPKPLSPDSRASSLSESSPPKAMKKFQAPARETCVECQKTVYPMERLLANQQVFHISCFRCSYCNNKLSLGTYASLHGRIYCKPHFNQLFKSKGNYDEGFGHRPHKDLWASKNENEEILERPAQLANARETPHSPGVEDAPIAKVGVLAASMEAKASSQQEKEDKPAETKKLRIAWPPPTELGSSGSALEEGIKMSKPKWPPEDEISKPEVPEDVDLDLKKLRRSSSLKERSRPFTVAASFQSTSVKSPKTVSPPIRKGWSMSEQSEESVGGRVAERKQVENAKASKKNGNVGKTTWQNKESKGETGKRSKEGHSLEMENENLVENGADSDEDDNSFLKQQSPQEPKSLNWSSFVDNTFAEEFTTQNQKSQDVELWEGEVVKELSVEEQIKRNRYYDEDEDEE
Sequence of TXN (P10599 2-105 limits assumed): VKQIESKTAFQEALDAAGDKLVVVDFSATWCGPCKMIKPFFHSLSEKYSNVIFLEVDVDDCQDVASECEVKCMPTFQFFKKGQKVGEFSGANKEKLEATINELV
Sequence of HSPB1 (P04792 whole entry): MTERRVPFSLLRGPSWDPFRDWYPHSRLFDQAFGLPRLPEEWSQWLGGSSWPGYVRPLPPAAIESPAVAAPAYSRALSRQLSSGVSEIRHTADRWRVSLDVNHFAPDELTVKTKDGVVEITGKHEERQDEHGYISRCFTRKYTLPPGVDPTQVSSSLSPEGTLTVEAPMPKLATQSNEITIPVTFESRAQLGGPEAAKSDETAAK

As to “C-terminal FLAG tagged B3GNT2 (from UniProt Q9NY97 1-397) (enzyme)”, the co-IP mass spectrometry count was determined as 6 with HIST1H1E; 2 with LIMA1; 3 in the test with TXN; 9 in the test with SRSF1; 2 with MTCH2; 4 with HSPB1. Moreover, the co-IP mass spectrometry count worked out at 6 with RPL5; 4 with NCCRP1; 2 in the test with PSMA7; 3 with TAGLN; 7 in the test with SRSF3; 8 in the test with TNKS1BP1. For the same substance, the co-IP mass spectrometry count stood at 11 with RPL19; 3 with DNAJA2; 3 with ITGB3; 7 in the test with RPL37A; 20 with RPS16; 6 with MTDH. The co-IP mass spectrometry count came to 6 with EIF4G1; 6 with DDX20; 12 with HNRNPU; 10 with RPS19; 10 in the test with RPL27A; 17 with RPS8. Besides, the co-IP mass spectrometry count in the test with SSRP1 was 6; with PBXIP1, 4; in the test with RPL22, 5.
For “IgG control (Millipore Sigma 12-371) (antibody)”, the co-IP mass spectrometry count with RPL13A (human) was 0; in the test with RPLPO (human), 0; with RPL30 (human), 4; in the test with RCN2 (human) it was 0; in the test with RPS12 (human), 4; with DNAJA1 (human), 0. The co-IP mass spectrometry count was found to be 8 in the test with RPL14 (human); 0 with CAPZB (human); 0 in the test with PRDX2 (human); 0 in the test with RPS5 (human); 0 with HSD17B12 (human); 4 with CASP14 (human). In addition, the co-IP mass spectrometry count in the test with LRP1 (human) was 0.
